Assay [1] concerns HSCs (cKIT+lineage-SCA1+CD27+FLK2- cells). The experiment in a line: HSC mobilization to the blood in mice (perfused blood, flow cytometry). In kind it is in vivo, mouse. The procedure: FIG. 1A: Experimental design for 2-hour HSC mobilization with sildenafil citrate plus AMD3100 (top), or 5-day GCSF treatment (bottom). GCSF was administered to mice once daily for 4 days (250 μg/kg). Sildenafil citrate was administered via oral gavage (OG; 3 mg/kg) once, 1 hr prior to a single subcutaneous (SQ) injection of AMD3100 (2.5 mg/kg). […]
FIG. 2E: Experimental design for HSC mobilization with multiple daily doses of sildenafil citrate. Sildenafil citrate was administered orally (OG) at 10 mg/kg once daily for 3 days. AMD3100 (2.5 mg/kg-5 mg/kg) was injected subcutaneously (SQ) 1 hour after the third sildenafil citrate dose, followed 1 hour later by blood perfusion and analysis.
Mobilization/tissue isolation. Mice were treated with subcutaneous (SQ) injections of rhGCSF (Amgen, Thousand Oaks, CA, 250 μg/kg) or a single dose of AMD3100 (Sigma, 2.5 mg/kg or 5 mg/kg where specified), or by oral gavage (OG) with sildenafil citrate (Viagra®; Sigma; 3, 10 or 30 mg/kg) (Motta et al., 2015) as indicated. Maximum blood was obtained by perfusing the mouse with PBS/20 mM EDTA through the left ventricle, clipping the right atrium and collecting the pooled perfused blood in the chest cavity. The total blood was processed for cell counts and flow cytometry analysis, as described previously (Smith-Berdan et al., 2011, 2015). Briefly, cells were pelleted by centrifugation, washed with 2% donor calf serum in PBS to remove EDTA, then incubated with fluorescently conjugated antibodies for flow cytometry analysis or resuspended in HBSS for transplantation into conditioned recipients.
Flow cytometry. Cell labeling was performed on ice in 1× PBS with 5 mM EDTA and 2% serum. Antibodies used are listed in the supplemental table. Samples were analyzed for donor chimerism (detectable by either GFP or antibodies targeted at the CD45.1/2 locus) on an LSRII or AriaIII (Becton Dickinson, San Jose, CA), as described previously (Beaudin et al., 2016; Boyer et al., 2011, 2019; Leung et al., 2019; Smith-Berdan et al., 2011, 2015; Ugarte et al., 2015).
(In flow cytometry, cells or beads pass a laser one at a time.)

Assay [2] relates to HSCs. The experiment in a line: Transplantation of mobilized blood into irradiated recipients (reconstitution, donor chimerism). Conditions: compared to sildenafil citrate plus AMD3100; total donor chimerism 20 weeks post-transplantation. In kind it is in vivo, mouse. The source says:
FIG. 1E: Donor chimerism over 5 months in lethally irradiated mice transplanted with blood from mice mobilized with AMD3100 alone or with both sildenafil citrate and AMD3100 as in the schedule shown in FIG. 1A. UBC-GFP mice were used as the mobilized donor mice, enabling identification of donor derived (GFP+) cells versus the unlabeled cells of the wild-type recipients. N=5-7 mice per cohort in 3 independent experiments. Paired t-test; *p<0.05 and **p<0.01.
FIGS. 11 and 1J: Long-term multilineage engraftment upon serial transplantation of bone marrow cells from the primary recipients in FIGS. 1E-1H into secondary, lethally irradiated wt hosts. Total donor chimerism in the peripheral blood over the course of the experiment is shown on the left. Quantification of donor-derived B, T and GM cells, platelets and erythrocytes 20 weeks post-transplantation is shown on the right. Data represent three independent experiments, N=9-12 mice per cohort. Unpaired t-test; *p<0.05, **p<0.01, ***p<0.001.
Transplantation of mobilized HSPCs. […]
Flow cytometry. […] Samples were analyzed for donor chimerism (detectable by either GFP or antibodies targeted at the CD45.1/2 locus) on an LSRII or AriaIII (Becton Dickinson, San Jose, CA), as described previously (Beaudin et al., 2016; Boyer et al., 2011, 2019; Leung et al., 2019; Smith-Berdan et al., 2011, 2015; Ugarte et al., 2015).

`c1cc(CN2CCCNCCNCCCNCC2)ccc1CN1CCCNCCNCCCNCC1` [AMD3100, reference compound]: the “increase of numbers of phenotypic HSCs compared to control mice” value in assay [1] (AMD3100 single SQ injection alone or plus a single oral sildenafil citrate dose (2-hour protocol), total perfused blood) is listed as 2.9 fold. Besides, the “numbers of HSCs in the blood 4 hrs post-treatment” value in assay [1] (perfusion and blood analysis 4 hours post AMD3100) was “return to steady-state levels”. Moreover, the HSC mobilization entry in assay [1] (single subcutaneous dose) is on record as “modest, but reproducible, HSC mobilization”.

B1: G-CSF: granulocyte-colony stimulating factor, rhGCSF (Amgen), standard mobilizing agent (protein, UniProt P09919 31-207, looked up)
Granulocyte …: TPLGPASSLPQSFLLKCLEQVRKIQGDGAALQEKLVSECATYKLCHPEELVLLGHSLGIPWAPLSSCPSQALQLAGCLSQLHSGLFLYQGLLQALEGISPELGPTLDTLQLDVADFATTIWQQMEELGMAPALQPTQGAMPAFASAFQRRAGGVLVASHLQSFLEVSYRVLRHLAQP
With B1, the “numbers of phenotypic HSCs in the blood compared to sildenafil citrate plus AMD3100” value in assay [1] (5-day GCSF protocol) is given as “did not lead to significantly higher numbers of phenotypic HSCs”. Besides, the “numbers of HSCs in the bloodstream” value in assay [1] (1 day after four consecutive days of G-CSF injections) is ~3,400 HSCs/mouse. Moreover, the “mobilization of HSCs and/or HPCs” value in assay [1] (FIGS. 2P and 2Q, GCSF 250 μg/kg for 4 days, AMD3100 5 mg/kg for 1 hour) is on record as “effectively mobilizes HSCs and/or HPCs”. Moreover, the “reconstitution of recipients by blood from mobilized donors” value in assay [2] is “reconstituted recipients more robustly”.

These data come from US12059437B2, “Methods and compositions for hematopoietic stem cell mobilization” (The Regents of the University of California, priority 2019, dated 2024).
